Data reported in paper PMC3877120, “Pentavalent Single-Domain Antibodies Reduce Campylobacter jejuni Motility and Colonization in Chickens” (PLoS ONE, 2013).

Key:
[1] = molecular target: T1, C. jejuni 81–176 flagella (Campylobacter jejuni strain 81–176, biotin (Sulfo-NHS-LC-LC-biotin), in the SPR only | biotin (Sulfo-NHS-LC-LC-biotin), in the SPR only); experiment: SPR; Biacore 3000; biotinylated flagella (700–900 RU) captured on an SA sensor chip; VHHs injected at 40 µl/min; 25°C; 10 mM HEPES pH 7.4, 150 mM NaCl, 3 mM EDTA, 0.005% P20; 1:1 interaction model; settings: both partners purified
T1 construct: flagellin FlaA of C. jejuni strain 81–176; flagellin FlaB of C. jejuni strain 81–176; also called flagellin; flagella protein; source: purified from C. jejuni 81–176 (sheared, ultracentrifugation, 1% SDS wash); also on formalin-fixed C. jejuni 81–176 cells
T1 chain 1: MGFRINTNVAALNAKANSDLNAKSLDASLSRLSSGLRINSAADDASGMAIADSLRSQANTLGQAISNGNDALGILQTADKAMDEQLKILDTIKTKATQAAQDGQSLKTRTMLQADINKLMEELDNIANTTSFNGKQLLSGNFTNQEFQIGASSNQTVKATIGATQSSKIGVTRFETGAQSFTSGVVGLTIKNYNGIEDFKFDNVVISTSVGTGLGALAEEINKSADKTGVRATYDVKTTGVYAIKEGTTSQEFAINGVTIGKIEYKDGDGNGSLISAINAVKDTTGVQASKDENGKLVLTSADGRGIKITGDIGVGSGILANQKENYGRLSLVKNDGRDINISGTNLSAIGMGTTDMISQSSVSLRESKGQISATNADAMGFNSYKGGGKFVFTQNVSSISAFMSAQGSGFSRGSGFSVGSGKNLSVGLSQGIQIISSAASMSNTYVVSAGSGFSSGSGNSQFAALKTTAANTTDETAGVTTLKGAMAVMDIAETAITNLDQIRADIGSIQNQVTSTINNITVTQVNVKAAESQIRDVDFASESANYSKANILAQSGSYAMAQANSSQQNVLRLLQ
T1 chain 2: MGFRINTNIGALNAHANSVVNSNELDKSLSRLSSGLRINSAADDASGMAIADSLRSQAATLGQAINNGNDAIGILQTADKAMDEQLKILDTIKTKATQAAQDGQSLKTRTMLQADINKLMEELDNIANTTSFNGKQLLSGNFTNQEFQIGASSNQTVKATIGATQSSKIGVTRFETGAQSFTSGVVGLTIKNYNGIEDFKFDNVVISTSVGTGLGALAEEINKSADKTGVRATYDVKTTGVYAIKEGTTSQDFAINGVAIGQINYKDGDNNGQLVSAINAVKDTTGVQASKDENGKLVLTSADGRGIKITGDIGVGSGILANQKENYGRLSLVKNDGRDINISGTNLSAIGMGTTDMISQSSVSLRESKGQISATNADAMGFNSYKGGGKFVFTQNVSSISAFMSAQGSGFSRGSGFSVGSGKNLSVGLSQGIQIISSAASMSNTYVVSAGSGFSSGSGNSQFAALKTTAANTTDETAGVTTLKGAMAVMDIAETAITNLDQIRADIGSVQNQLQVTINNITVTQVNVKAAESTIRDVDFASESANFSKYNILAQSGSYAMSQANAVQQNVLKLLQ

[2] = molecular target: T1, C. jejuni 81–176 flagella; experiment: ELISA; C. jejuni 81–176 flagella coated on Maxisorp plates (5 µg/ml in PBS); monomeric or pentameric VHH at 10 to 0.0001 µg/ml, 1 h at 37°C; detected with anti-His6-HRP; concentration of 50% maximum binding; settings: both partners purified

B1: FlagV1M (monomeric flagella-specific VHH FlagV1) (VHH)
VHH: QVKLEESGGGLVQAGGSRRLSCATSGLTFRNFHMAWFRQVAGKEREVVAAISWSRDRQYYPDPVKGRFTITRDNAKNTVYLQMNSLKPEDTAVYYCAARTASASGDWYKGSYQYWGQGTQVTVSS
notes: llama VHH from an immune phage display library; also called FlagV1 VHH; source: E. coli TG1, periplasm, purified (IMAC; Superdex 75 before SPR)
Kd [1]: 20 nM
koff [1]: 0.002 s⁻¹
kon [1]: 100000 M⁻¹ s⁻¹
EC50 [2]: 15.6 nM
